What was measured:
human FcRn (human) = human FcRn (human) (UniProt P55899); assay: SPR, antibody immobilized, soluble FcR
[1] = molecular target: recombinant human CD64 (human) (UniProt P12314); assay: SPR, antibody immobilized, soluble CD64, 1:1 kinetic model
[2] = molecular target: recombinant human CD32b (human) (UniProt P31994); assay: SPR, antibody immobilized, soluble FcR, steady state
[3] = molecular target: recombinant human CD32a (human) (UniProt P12318); assay: as above
[4] = molecular target: recombinant human CD16a(V) (human) (UniProt P08637); assay: as above
[5] = molecular target: recombinant human ILT2 protein (analyte in SPR and Octet) (human) (UniProt Q8NHL6); assay: BLI (Octet RED96), mAb captured on AMC biosensor, 1:1 model
[6] = molecular target: human ILT-2 (LILRB1), complete form expressed at the cell surface (human) (UniProt Q8NHL6); assay: flow cytometry, CHO-ILT2 cells
[7] = molecular target: ILT2 on primary human NK cells (human) (UniProt Q8NHL6); assay: flow cytometry, primary NK cells
[8] = molecular target: recombinant human CD16a(F) (human) (UniProt P08637); assay: SPR, antibody immobilized, soluble FcR, steady state
[9] = molecular target: recombinant human CD16b (human) (UniProt O75015); assay: as above
Chain of recombinant human CD16b (human) (O75015 17-200 limits assumed): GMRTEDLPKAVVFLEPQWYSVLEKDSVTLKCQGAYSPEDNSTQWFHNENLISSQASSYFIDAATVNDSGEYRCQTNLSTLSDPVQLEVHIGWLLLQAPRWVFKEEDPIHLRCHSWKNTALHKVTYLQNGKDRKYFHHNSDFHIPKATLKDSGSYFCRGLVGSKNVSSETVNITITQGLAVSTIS

Chain of recombinant human CD32a (human) (P12318 36-218): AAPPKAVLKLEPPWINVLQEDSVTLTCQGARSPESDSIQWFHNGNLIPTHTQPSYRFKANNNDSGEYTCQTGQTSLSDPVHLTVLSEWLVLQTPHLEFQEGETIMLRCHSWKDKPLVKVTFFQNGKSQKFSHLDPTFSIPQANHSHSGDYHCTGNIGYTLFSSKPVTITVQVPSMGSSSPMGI
Chain of recombinant human ILT2 protein (analyte in SPR and Octet) (human) (Q8NHL6 24-458 limits assumed): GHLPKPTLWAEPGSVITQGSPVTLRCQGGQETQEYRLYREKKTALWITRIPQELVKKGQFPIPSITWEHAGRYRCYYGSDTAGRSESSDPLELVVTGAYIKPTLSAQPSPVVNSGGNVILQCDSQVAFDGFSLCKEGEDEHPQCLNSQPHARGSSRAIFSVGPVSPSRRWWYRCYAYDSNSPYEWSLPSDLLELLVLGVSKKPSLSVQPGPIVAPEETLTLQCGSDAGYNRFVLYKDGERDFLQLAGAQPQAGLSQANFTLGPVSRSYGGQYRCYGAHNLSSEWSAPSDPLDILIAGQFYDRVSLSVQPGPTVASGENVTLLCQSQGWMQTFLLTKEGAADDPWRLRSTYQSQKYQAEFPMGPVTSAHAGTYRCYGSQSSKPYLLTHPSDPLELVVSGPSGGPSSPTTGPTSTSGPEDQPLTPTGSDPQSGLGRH
Chain of recombinant human CD64 (human) (P12314 16-288 limits assumed): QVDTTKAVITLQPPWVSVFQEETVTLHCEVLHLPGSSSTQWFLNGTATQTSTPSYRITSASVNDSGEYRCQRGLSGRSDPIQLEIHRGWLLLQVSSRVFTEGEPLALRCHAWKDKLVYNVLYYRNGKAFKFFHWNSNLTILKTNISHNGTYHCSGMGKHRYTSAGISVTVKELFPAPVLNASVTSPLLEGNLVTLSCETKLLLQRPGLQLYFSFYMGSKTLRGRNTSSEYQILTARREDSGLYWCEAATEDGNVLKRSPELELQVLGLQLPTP
Chain of recombinant human CD32b (human) (P31994 46-217): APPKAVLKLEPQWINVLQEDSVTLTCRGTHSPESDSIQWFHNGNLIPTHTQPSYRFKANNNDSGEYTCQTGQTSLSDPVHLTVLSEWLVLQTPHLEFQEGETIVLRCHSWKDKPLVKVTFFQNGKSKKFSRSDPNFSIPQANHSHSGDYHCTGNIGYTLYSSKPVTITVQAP
Chain of human FcRn (human) (P55899 24-297 limits assumed, chain 1 of 2): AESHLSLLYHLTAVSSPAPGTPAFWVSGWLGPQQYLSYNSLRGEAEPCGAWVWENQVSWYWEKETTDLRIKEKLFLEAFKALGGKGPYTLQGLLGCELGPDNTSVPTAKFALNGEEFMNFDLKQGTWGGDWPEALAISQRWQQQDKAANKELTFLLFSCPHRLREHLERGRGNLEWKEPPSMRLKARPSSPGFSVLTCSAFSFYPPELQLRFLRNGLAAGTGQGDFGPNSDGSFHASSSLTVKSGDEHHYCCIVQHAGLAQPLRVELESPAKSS
Chain of human FcRn (human) (chain, as listed by the source limits assumed, chain 2 of 2): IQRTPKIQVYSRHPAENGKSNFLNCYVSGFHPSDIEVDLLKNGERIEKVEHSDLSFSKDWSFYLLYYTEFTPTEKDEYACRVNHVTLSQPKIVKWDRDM
Chain of recombinant human CD16a(V) (human) (P08637 17-208 F176V limits assumed): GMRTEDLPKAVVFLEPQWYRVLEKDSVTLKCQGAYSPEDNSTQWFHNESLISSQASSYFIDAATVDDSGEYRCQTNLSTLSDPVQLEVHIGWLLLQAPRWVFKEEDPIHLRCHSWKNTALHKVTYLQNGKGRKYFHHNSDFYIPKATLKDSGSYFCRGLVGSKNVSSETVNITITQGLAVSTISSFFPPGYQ
Chain of recombinant human CD16a(F) (human) (P08637 17-208 limits assumed): as the sequence (P08637 17-208 F176V limits assumed) above, with V160F counted along it
Chain of ILT2 on primary human NK cells (human) (Q8NHL6 24-650): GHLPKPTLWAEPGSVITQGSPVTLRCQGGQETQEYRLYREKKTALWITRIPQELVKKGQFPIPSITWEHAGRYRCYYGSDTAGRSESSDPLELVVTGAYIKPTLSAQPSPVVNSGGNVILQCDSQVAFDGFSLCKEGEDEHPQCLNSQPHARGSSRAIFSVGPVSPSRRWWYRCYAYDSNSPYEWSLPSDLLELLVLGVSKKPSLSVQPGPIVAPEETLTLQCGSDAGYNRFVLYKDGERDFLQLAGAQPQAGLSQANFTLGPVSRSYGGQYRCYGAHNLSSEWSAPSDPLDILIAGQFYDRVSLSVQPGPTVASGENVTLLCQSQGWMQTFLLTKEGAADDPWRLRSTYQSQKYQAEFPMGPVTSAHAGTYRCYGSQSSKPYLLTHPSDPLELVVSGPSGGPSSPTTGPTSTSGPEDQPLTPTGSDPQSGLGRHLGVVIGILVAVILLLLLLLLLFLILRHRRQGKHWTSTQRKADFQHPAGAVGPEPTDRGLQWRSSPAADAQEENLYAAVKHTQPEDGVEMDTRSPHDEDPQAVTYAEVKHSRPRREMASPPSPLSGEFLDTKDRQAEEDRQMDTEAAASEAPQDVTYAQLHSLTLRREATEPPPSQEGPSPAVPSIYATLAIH
Chain of human ILT-2 (LILRB1), complete form expressed at the cell surface (human) (Q8NHL6 24-650): as above

| Substance | Kd (human FcRn (human)) | Kd [1] | Kd [2] | Kd [3] | Kd [4] | other results |
| --- | --- | --- | --- | --- | --- | --- |
| human IgG1 antibody having L234A/L235E/G237A/A330S/P331S substitutions | 0.714 µM |  |  |  |  |  |
| human IgG1 antibody having L234A/L235E/P331S substitutions | 1.51 µM | 1.55 µM | 79.8 µM | 19.9 µM | 9.92 µM |  |
| human IgG1 antibody having a N297S substitution | 0.712 µM | 0.278 µM |  |  |  |  |
| HP-F1 (antibody) |  |  |  |  |  | Kd [5]: 0.0023 µM; koff [5]: 0.0011 s⁻¹; kon [5]: 460000 M⁻¹ s⁻¹; EC50 [6]: 0.56 µg/mL; EC50 [7]: 0.09 µg/mL |
| antibody having wild type human IgG1 domain | 1.27 µM |  |  | 2.08 µM | 0.734 µM | Kd [8]: 0.962 µM; Kd [9]: 15 µM |
| human IgG1 antibody having L234A/L235E/G237A/P331S substitutions | 0.758 µM |  | 16.6 µM | 16.8 µM |  |  |
| human IgG1 antibody having L234F/L235E/P331S substitutions | 0.627 µM | 0.933 µM | 17.4 µM | 14.2 µM | 8.63 µM | Kd [8]: 35.6 µM |
| human IgG1 antibody having L234A/L235E/G237A/A330S/P331S substitutions (antibody; other documents disagree on this pair) |  |  | 21.8 µM | 18.2 µM |  |  |

From US20220025045A1
